This note sets out measurements from FireProtDB (doi:10.1038/nsb0996-782).

For the data set the following is noted: Escherichia coli (strain K12); pH 5.1; 25 °C; GdnHCl; NMR; Sodium acetate 100mM; whole UniProt chain shown.

B1: Ribonuclease HI wild type, P0A7Y4 (protein)
chain: MLKQVEIFTDGSCLGNPGPGGYGAILRYRGREKTFSAGYTRTTNNRMELMAAIVALEALKEHCEVILSTDSQYVRQGITQWIHNWKKRGWKTADKKPVKNVDLWQRLDAALGQHQIKWEWVKGHAGHPENERCDELARAAAMNPTLEDTGYQVEV
In the case of B1, the unfolding free energy is 10.5 kcal/mol.
